# B1: Guanyl-specific ribonuclease T1 wild type, P00651 (protein)
# chain: MMYSKLLTLTTLLLPTALALPSLVERACDYTCGSNCYSSSDVSTAQAAGYQLHEDGETVGSNSYPHKYNNYEGFDFSVSSPYYEWPILSSGDVYSGGSPGADRVVFNENNQLAGVITHTGASGNNFVECT
# Conditions: Aspergillus oryzae (strain ATCC 42149 / RIB 40), 0 °C, Urea, CD, reversible: yes, whole UniProt chain shown
protein,measurement,setting,value
B1,denaturant m value,"pH 2.5, glycine 30 mM",1.58 kcal/mol/M
same,denaturant midpoint (higher = more stable),"pH 2.5, glycine 30 mM",2.78 M
same,denaturant m value,"pH 7, MOPS 30 mM",1.28 kcal/mol/M
same,denaturant midpoint (higher = more stable),"pH 7, MOPS 30 mM",4.32 M
